# Measured values: paper PMC6932757, “Inhibition of FLT1 ameliorates muscular dystrophy phenotype by increased vasculature in a mouse model of Duchenne muscular dystrophy” (PLoS Genetics, 2019)
# T1: mouse FLT1-FC chimeric protein with His-tag (mouse, UniProt P35969 23-759)
# T1 construct: FLT1 (VEGF receptor-1, VEGFR1), mouse, soluble form fused to FC; also called chimeric FLT1-FC; mouse soluble FLT1-FC chimeric protein; source: bought: R&D Systems (471-F1-100)
# T1 sequence (looked up): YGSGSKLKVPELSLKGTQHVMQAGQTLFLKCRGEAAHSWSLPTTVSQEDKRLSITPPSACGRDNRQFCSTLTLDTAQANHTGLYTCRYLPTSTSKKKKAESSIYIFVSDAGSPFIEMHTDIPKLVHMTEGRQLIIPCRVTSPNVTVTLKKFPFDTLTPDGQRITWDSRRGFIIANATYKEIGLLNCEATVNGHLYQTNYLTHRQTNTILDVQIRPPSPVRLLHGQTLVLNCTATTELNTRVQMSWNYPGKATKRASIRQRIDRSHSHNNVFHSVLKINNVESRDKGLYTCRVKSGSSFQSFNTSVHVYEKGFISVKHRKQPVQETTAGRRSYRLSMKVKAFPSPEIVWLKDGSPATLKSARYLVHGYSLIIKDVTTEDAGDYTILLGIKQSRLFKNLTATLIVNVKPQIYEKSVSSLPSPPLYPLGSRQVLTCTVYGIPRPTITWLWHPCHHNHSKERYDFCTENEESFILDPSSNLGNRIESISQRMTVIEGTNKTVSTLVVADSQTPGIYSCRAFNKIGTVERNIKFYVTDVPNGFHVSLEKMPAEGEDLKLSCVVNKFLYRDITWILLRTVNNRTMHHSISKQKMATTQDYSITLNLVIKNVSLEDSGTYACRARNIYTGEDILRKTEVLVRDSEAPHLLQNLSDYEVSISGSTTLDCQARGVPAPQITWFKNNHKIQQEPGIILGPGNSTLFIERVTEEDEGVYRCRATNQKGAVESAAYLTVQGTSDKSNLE
# Target: T1, mouse FLT1-FC chimeric protein with …
# Assay: ELISA; mouse FLT1-FC (His-tag) coated on 96 well plates, blocked with 5% BSA; anti-FLT1 antibodies incubated, then mouse PlGF2; detected with biotin-conjugated anti-PlGF2 antibody and Streptavidin-HRP, TMB, 450 nm
# Settings: both partners purified
binder,measurement,value
"recombinant mouse PlGF2 (ligand, UniProt P49764 19-158, looked up, Placenta growth factor 2 (PlGF2), mouse, recombinant; probably the mature secreted protein (surmised); source: bought: R&D Systems (465-PL-010/CF)) VHSQGALSAGNNSTEVEVVPFNEVWGRSYCRPMEKLVYILDEYPDEVSHIFSPSCVLLSRCSGCCGDEGLHCVPIKTANITMQILKIPPNRDPHFYVEMTFSQDVLCECRPILETTKAERRKTKGKRKRSRNSQTEEPHP",binding result,binds
